Data: paper PMC6244167

What was measured:
[1] = molecular target: vasoinhibin of 79 residues (first 79 residues of human PRL) (human); assay: non-reducing Western blot; conditioned media of transduced HEK293T/17 cells run without reduction and immunoblotted for PRL; disulfide-bonded dimers seen as bands of ~18 kDa and ~28 kDa
[2] = molecular target: vasoinhibin of 123 residues (first 123 residues of human PRL) (human); assay: as above

## vasoinhibin of 79 residues (first 79 residues of human PRL) (domain or fragment)
[1]
  stoichiometry N: 2

## vasoinhibin of 123 residues (first 123 residues of human PRL) (domain or fragment)
[2]
  stoichiometry N: 2
